Series [1] concerns the target T1, 3-alpha-hydroxysteroid dehydrogenase (Rattus norvegicus) (UniProt P23457).
T1 sequence (whole entry): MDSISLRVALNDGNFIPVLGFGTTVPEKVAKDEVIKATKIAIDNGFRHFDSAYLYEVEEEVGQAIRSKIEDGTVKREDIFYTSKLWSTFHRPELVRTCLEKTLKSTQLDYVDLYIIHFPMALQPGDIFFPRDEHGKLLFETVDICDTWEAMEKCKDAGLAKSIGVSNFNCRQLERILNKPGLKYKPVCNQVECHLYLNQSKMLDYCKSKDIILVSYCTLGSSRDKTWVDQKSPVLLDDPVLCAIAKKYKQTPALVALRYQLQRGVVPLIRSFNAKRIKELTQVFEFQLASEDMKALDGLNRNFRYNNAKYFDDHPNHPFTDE
The series can be described thus: Ratio of Vmax to Km for rat liver 3-alpha-HSD for formation of corresponding (R)-alcohol products.

Series [2] deals with T1, 3-alpha-hydroxysteroid dehydrogenase (Rattus norvegicus). The series can be described thus: Ratio of Vmax to Km for rat liver 3-alpha-HSD for formation of corresponding (S)-alcohol products.
Substrate in series [3]: CC(=O)c1ccc(C)cc1
Description: (§1) Activity of rat liver 3-alpha-HSD assessed as formation of corresponding (R)-alcohol products per mg of protein.

Substrate in series [4]: CC(=O)c1ccc(N(C)C)cc1
The series is described as §1.

Substrate in series [5]: CC(=O)c1ccc(Br)cc1
The series can be described thus: (§2) Activity of rat liver 3-alpha-HSD assessed as formation of corresponding (S)-alcohol products.

Substrate in series [6]: CC(=O)c1ccccc1
The description is as §2.

Substrate in series [7]: CC(=O)c1ccc([N+](=O)[O-])cc1
The description is as §2.

Substrate in series [8]: CC(=O)c1ccc(C#N)cc1
Described as §2.

Substrate in series [9]: COc1ccc(C(C)=O)cc1
The description is as §2.

Substrate in series [10]: CC(=O)c1ccc(C)cc1
The series is described as §2.

Substrate in series [11]: CC(=O)c1ccc(N(C)C)cc1
The series is described as §2.

Substrate in series [12]: CC(=O)c1ccc(Br)cc1
The series can be described thus: (§3) Activity of rat liver 3-alpha-HSD assessed as formation of corresponding (S)-alcohol products per mg of protein.

Substrate in series [13]: CC(=O)c1ccccc1
The description is as §3.

Substrate in series [14]: CC(=O)c1ccc([N+](=O)[O-])cc1
The description is as §3.

Substrate in series [15]: CC(=O)c1ccc(C#N)cc1
Described as §3.

Substrate in series [16]: COc1ccc(C(C)=O)cc1
The series is described as §3.

Substrate in series [17]: CC(=O)c1ccc(C)cc1
The description is as §3.

Substrate in series [18]: CC(=O)c1ccc(N(C)C)cc1
The description is as §3.

Substrate in series [19]: CC(=O)c1ccc(C)cc1
The series can be described thus: (§4) Activity of rat liver 3-alpha-HSD assessed as formation of corresponding (R)-alcohol products.

Substrate in series [20]: CC(=O)c1ccc(N(C)C)cc1
Described as §4.

Turning to `CC(=O)c1ccc(N(C)C)cc1`, the results for the Ratio in series [1] and in series [2] were 0.09 µL/min and 0.41 µL/min, respectively.

As to `CC(=O)c1ccc([N+](=O)[O-])cc1`, in [2], the Ratio was found to be 61700 µL/min.

On to `CC(=O)c1ccc(C#N)cc1`, for which the Ratio in [2] turned out to be 9440 µL/min.

For `CC(=O)c1ccc(C)cc1`, the Ratio in series [1] came to 1.01 µL/min; in series [2], 7.21 µL/min.

`CC(=O)c1ccccc1`: the Ratio in series [2] was 49 µL/min.

Turning to `CC(=O)c1ccc(Br)cc1`, in [2], the Ratio is 30.6 µL/min.

In the case of `COc1ccc(C(C)=O)cc1`, the Ratio in series [2] came out at 0.97 µL/min.

B1: 3-alpha-hydroxysteroid dehydrogenase (Rattus norvegicus), P23457 (protein)
chain: T1 sequence (whole entry)
By Vmax is commonly meant the rate approached at saturating substrate. In general, Km refers to the concentration of substrate that gives half-maximal velocity. B1: the Vmax in [3] is 0.013 µmol/min; in series [4] it was 0.002 µmol/min; in series [12], 0.315 µmol/min; in series [13], 0.51 µmol/min; in series [14], 1.13 µmol/min; in [15], 1.08 µmol/min. The Vmax in series [16] came to 0.005 µmol/min; in [17], 0.2 µmol/min; in series [18], 0.009 µmol/min. In addition, the Km in series [5] came out at 10.3 mM; in series [6], 10.4 mM; in series [7], 0.02 mM; in [8] it was 0.11 mM; in series [9], 5.59 mM; in series [10] it was 27.7 mM. Also, the Km in series [11] amounted to 21.9 mM; in [19], 13.2 mM; in [20], 19.2 mM.

Source of the values: ChEMBL document CHEMBL1143972, “Electronic effects of para-substitution on acetophenones in the reaction of rat liver 3alpha-hydroxysteroid dehydrogenase” (Bioorg Med Chem, 2008).
